The record followed here is US10100120B2, “Antibody which specifically binds to human CRTH2” (KYOWA HAKKO KIRIN CO., LTD, priority 2015, dated 2018).

In experiment [1] the target is T1, mutated human CRTH2 with amino acid substitution (Homo sapiens, UniProt Q9Y5Y4, D194A).
T1 construct: inserting genes encoding various mutants with amino acid substitution obtained by deleting termination codons; expressed in transfected cells; host or cells: CHO-S cells (Lifetechnologies), transient (phmAG1-MNLinker vector)
T1 sequence (Q9Y5Y4 1-395 D194A): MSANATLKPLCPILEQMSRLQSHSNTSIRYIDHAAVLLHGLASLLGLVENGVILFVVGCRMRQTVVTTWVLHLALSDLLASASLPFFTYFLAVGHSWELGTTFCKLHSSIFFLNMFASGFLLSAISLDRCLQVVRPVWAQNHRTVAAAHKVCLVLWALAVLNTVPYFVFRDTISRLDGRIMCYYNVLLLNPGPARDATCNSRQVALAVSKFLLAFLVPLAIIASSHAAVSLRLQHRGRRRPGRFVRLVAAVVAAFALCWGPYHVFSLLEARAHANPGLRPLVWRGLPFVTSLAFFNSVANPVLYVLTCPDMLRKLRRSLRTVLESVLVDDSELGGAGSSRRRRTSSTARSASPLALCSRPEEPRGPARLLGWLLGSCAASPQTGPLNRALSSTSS
The experiment is described as follows: Epitope analysis using CHO-S cells which express mutated human CRTH2 with amino acid substitution. The class given is binding. As to conditions: mutant D194A; antibody 10 μg/mL; relative to wild-type = 100%. Summed up: (§1)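 CHO-S cells transiently expressing alanine-substituted human CRTH2 extracellular mutants, C-terminally Azami-Green tagged, 24 h post-transfection. Antibodies at 10 μg/mL, 4 °C 1 h, then Alexa647 anti-IgG secondary 4 °C 1 h; flow cytometry on Azami-Green-positive cells. Reactivity = Alexa647 intensity divided by Azami-Green intensity.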

Experiment [2] deals with T2, mutated human CRTH2 with amino acid substitution (Homo sapiens, UniProt Q9Y5Y4, D196A/T198A).
T2 construct: inserting genes encoding various mutants with amino acid substitution obtained by deleting termination codons; expressed in transfected cells; host or cells: CHO-S cells (Lifetechnologies), transient (phmAG1-MNLinker vector)
T2 sequence (Q9Y5Y4 1-395 D196A/T198A): T1 sequence (Q9Y5Y4 1-395 D194A) with A194D, D196A, T198A
The experiment is described as above. The experiment is classed as binding. Particulars: mutant D196A and T198A; antibody 10 μg/mL; relative to wild-type = 100%. Summed up: as §1

Numbering of substitutions follows the chain as printed.

B1: LV0HV1: humanized Lym2 antibody, VL LV0 (SEQ ID NO: 33), VH HV1 (SEQ ID NO: 51) (antibody, V domains shown)
VH: EVQLVESGGGVVQPGRSLRLSCAASGFTFSNYYMAWVRQAPGKGLEWVATISYDGSSTYYRDSVKGRFTISRDNAKNSLYLQMNSLRAEDTATYYCARHRGYYYSGAGYFDYWGQGTMVTVSS
VL: DIVMTQTPLSLPVTPGESASISCRSSQSLEYSDGYTYLEWYLQKPGQSPQVLIYGVSNRFSGVPDRFSGSGSGTDFTLKISRVEAEDVGVYYCFQATHDPLTFGQGTKLEIK
Turning to B1, the “reactivity against cells expressing mutated human CRTH2” value in experiment [1] and in experiment [2] was “lost” each time.
